Results reported in the supplement of paper PMC10567573.

B1: USP39 (parent)
chain: TLSEAYIQIWKRRDNDETNQQGA
B2: EDARADD (parent)
chain: VEKVLRRWVDEEWPKRERGDPSRH

Variants of: B1
Assay: protein stability index of a GFP-peptide fusion (GPS, HEK-293T) (PSI 1-6); higher = more stable
Details: c terminus: native
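Note: lentivirally expressed fusions sorted by FACS into six bins by GFP to DsRed ratio, PSI derived from sequencing read proportions per bin multiplied by bin number.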

Variant	protein stability index
Q8D	2.48
Q8T	1.98
N15T	1.88
N15W	2.36
N15K	2.51
R13M	2.14
R13Q	4.3
R13I	2.52
R13S	2.07
R13C	2.06
I9K	3.13
I9W	1.73
I9Y	3.19
I9A	2.66
D14W	1.94
D14Q	2.12
D14N	1.71
D14T	2.39
D14P	2.37
Q20M	3.46
Q20H	1.58
Q20V	1.73

Variant	protein stability index
Q20P	1
E4L	2.49
E4D	2.56
E4R	2.97
A23S	3.94
A23Y	3.58
N19Q	2.85
N19P	1.45
N19A	2.38
N19D	4.38
T18M	1.43
T18N	2.41
T18H	3.19
T18G	2.57
T18R	2.54
E17T	1.9
E17K	1.72
T1V	2.07
T1Q	2.32
T1P	2.54
T1C	2.34
Y6G	3.19

Variant	protein stability index
Y6K	3.02
Y6S	2.89
Y6M	2.26
Y6C	2.98
G22C	2.83
G22R	2.83
G22N	4.12
G22D	3.84
Q21S	2.96
Q21K	3.59
Q21F	1.79
Q21C	1.76
Q21N	3.81
Q21E	2.87
Q21M	1.8
L2V	2.73
L2I	2.77
L2R	2.85
I7P	3.23
I7Y	2.18
S3I	2.3
S3V	1.11

Variant	protein stability index
S3R	2.78
A5D	3.45
A5P	3.69
A5T	2.38
A5F	1.78
A5R	3.47
A5V	2.93
W10M	2.5
W10I	2.72
W10F	2.78
K11F	2.04
K11G	2.39
K11L	2.32
R12S	2.53
R12H	1.96
R12A	2.15
R12M	2.1
D16I	1.95
D16Q	2.22
D16R	1.66

Variants of: B2
Assay: as above
Details: c terminus: a fixed tail appended

Variant	protein stability index
R23S	3.07
R23Y	2.87
R23H	3.38
R23V	2.44
R23T	2.58
R23K	2.83
R23F	1.98
R23A	2.83
R23G	2.59
R23D	3.05
R23E	3.71
R23C	3
R23Q	2.96
R23W	1.88
R23L	2.66
R23I	3.32
R23M	2.45
R23P	3.56
R23N	2.81
W13F	2.01
W13I	3.35
W13D	3
W13N	3.86
W13L	3.38
W13C	3.21

Variant	protein stability index
W13Q	3.94
W13H	4
W13P	3.75
W13Y	2.79
W13V	3.98
W13S	3.54
W13M	2.62
W13T	3.38
W13E	3.75
W13A	3.42
W13R	3.96
W13G	4.24
E11Q	3.05
E11R	1.59
E11M	1.74
E11Y	2.09
E11T	2.61
E11W	1.96
E11N	3.19
E11P	2.2
E11K	2.08
E11S	2.71
E11V	1.88
P14D	2.39
P14W	2.38

Variant	protein stability index
P14K	2.82
P14N	2.8
P14G	2.22
P14F	2.14
P14V	2.92
P14M	2.62
P14L	2.13
P14A	2.31
P14E	2.05
P14R	3.06
P14Y	2.32
P14C	3.5
P14T	2.49
P14S	2.59
P21S	3.25
P21V	2.19
P21Q	3.07
P21A	3.34
P21M	2.39
P21R	2.4
P21E	3.51
P21L	2.5
P21N	3.21
P21K	3.46
P21F	2.28

Variant	protein stability index
P21Y	2.34
P21H	2.52
P21D	3.57
P21T	2.68
P21W	1.89
P21C	2.51
P21G	3.02
P21I	2.36
K15N	2.25
K15P	3.58
K15Y	2.31
K15A	2.72
K15L	2.41
K15D	3.17
K15W	1.71
K15Q	2.24
K15F	2.74
K15R	2.42
K15E	3.96
K15I	2.82
K15C	3.18
K15M	2.97
K15T	3.51
K15G	3.44
K15H	3.55

Variant	protein stability index
K15S	3.33
K15V	2.29
D20H	2.81
D20F	2.35
D20Y	2.63
D20I	2.19
D20P	2.04
D20A	3.45
D20R	2.48
D20T	3.07
D20E	2.63
D20C	2.31
D20Q	2.5
D20N	2.94
D20K	3.07
D20S	2.68
D20W	2.61
D20M	2.21
D20G	2.81
D20V	2.71
D20L	2.5
E17V	1.96
E17W	1.83
E17T	2.45
E17D	3.53

Variant	protein stability index
E17P	1.68
E17M	2.97
E17F	2.01
E17A	3.43
E17H	3.27
E17I	2.19
E17G	3.32
E17C	2.26
E17R	2.85
E17Y	2.55
E17K	2.96
E17Q	2.99
E17S	2.44
E17N	2.84
E17L	2.7
G19F	2.05
G19E	3.14
G19K	2.79
G19I	2.6
G19R	2.64
G19H	3.06
G19C	2.52
G19Y	2.21
G19W	2.1
G19N	2.41

Variant	protein stability index
G19L	2.37
G19M	2.54
G19S	2.8
G19P	2.89
G19T	2.55
G19V	2.11
G19Q	2.73
G19D	3.1
E12A	1.87
E12N	1.92
E12I	2.06
E12T	2.27
E12M	2.08
E12G	2.81
E12W	1.54
E12Q	1.95
E12D	2.45
E12R	3.4
E12Y	1.81
E12K	2.66
E12H	1.99
E12V	2.12
E12C	2.28
E12P	2.4
E12F	1.78

Variant	protein stability index
E12S	2.36
R18C	2.91
R18E	3.73
R18F	2.5
R18A	2.29
R18S	2.83
R18N	3.22
R18K	1.81
R18T	2.96
R18M	3.15
R18H	3.18
R18V	2.99
R18G	3.58
R18Q	3.53
R18L	2.81
R18Y	2.44
R18P	3.34
R18W	2.64
R18D	3.18
R18I	3.12
H24L	3.12
H24C	2.13
H24E	2.48
H24A	2.59
H24W	1.84

Variant	protein stability index
H24Y	2.41
H24M	3.47
H24R	3.5
H24D	3.06
H24F	2.61
H24G	2.71
H24P	2.37
H24N	2.75
H24S	2.81
H24V	2.93
H24Q	3.56
H24I	2.3
H24T	2.96
H24K	3.04
S22Y	2.52
S22T	2.93
S22C	2.2
S22F	1.83
S22P	2.6
S22N	2.78
S22E	3.63
S22H	2.55
S22V	2.66
S22W	1.84
S22Q	2.96

Variant	protein stability index
S22I	2.52
S22K	2.46
S22M	2.17
S22A	2.48
S22D	3.26
S22R	3.51
S22G	2.31
R16Q	2.1
R16V	2.49
R16A	3.55
R16D	2.83
R16K	2.48
R16P	3
R16M	2.7
R16I	3.77
R16Y	2.14
R16L	2.69
R16N	3.62
R16F	2.46
R16C	2.67
R16S	2.58
R16E	3.66
R16T	3.46
